Measurements as given in US20030114404, “Vascular endothelial growth factor (VEGF) nucleic acid ligand complexes” (Gilead Sciences, Inc., published 2003).

B1: VT30.12 (ssRNA)
RNA: GGGAGGACGAUGCGGUCUUUGGGUUUUUGCCAACGGUUUUCGCUCAGACGACUCGCCCGA
modifications: 2'-F pyrimidines
B2: VP30.1 (ssRNA)
RNA: GGGAGGACGAUGCGGUCUUUGAGUUUUUGCCAACGGUUUUCGCUCAGACGACUCGCCCGA
modifications: 2'-F pyrimidines
B3: VP30.16 (ssRNA)
RNA: GGGAGGACGAUGCGGAUGAUCGCGUAGGAAGUAUUGGAAGGCCCUCAGACGACUCGCCCGA
modifications: 2'-F pyrimidines
B4: VT30.1 (ssRNA)
RNA: GGGAGGACGAUGCGGAACUAGUGAAUGCUUAUACGACCGUGUUGUCAGACGACUCGCCCGA
modifications: 2'-F pyrimidines
B5: VT30.29 (ssRNA)
RNA: GGGAGGACGAUGCGGAAUCAGUGAAUGCUUAUAGCUCCGCGUGGUCAGACGACUCGCCCGA
modifications: 2'-F pyrimidines
B6: VT30.11 (ssRNA)
RNA: GGGAGGACGAUGCGGAAUCAGUGAAUGCUUAUAGCUCCCGCGUCCUCAGACGACUCGCCCGA
modifications: 2'-F pyrimidines
B7: VP40.17 (ssRNA)
RNA: GGGAGGACGAUGCGGUGAACCGAUGGAAUCGCUUGGACGCUCAUCGCACGUUGCUCAGACGACUCGCCCGA
modifications: 2'-F pyrimidines
B8: VT30.54 (ssRNA)
RNA: GGGAGGACGAUGCGGGACUAGGUGAAUGCCAAUAUUCUUCUCCGUCAGACGACUCGCCCGA
modifications: 2'-F pyrimidines
B9: VT30.15 (ssRNA)
RNA: GGGAGGACGAUGCGGAACCAGUGAAUGCUUAUAAGACUGCUCGUCAGACGACUCGCCCGA
modifications: 2'-F pyrimidines
B10: VP30.19 (ssRNA)
RNA: GGGAGGACGAUGCGGCACUUUAGAAGAAUUGAAUUUCCCGCUGGUCAGACGACUCGCCCGA
modifications: 2'-F pyrimidines
B11: VP30.13 (ssRNA)
RNA: GGGAGGACGAUGCGGGAUAACAGAAGAAUUGGUGAACAACGUGGUCAGACGACUCGCCCGA
modifications: 2'-F pyrimidines
B12: VP40.44 (ssRNA)
RNA: GGGAGGACGAUGCGGAUCUGUUGAACUGGGUUUUGCCGACGGUUACGCUUUUGCUCAGACGACUCGCCCGA
modifications: 2'-F pyrimidines
B13: VT30.20 (ssRNA)
RNA: GGGAGGACGAUGCGGAAACGGAAGAAUUGGAUACCGCUACGUGUUCAGACGACUCGCCCGA
modifications: 2'-F pyrimidines
B14: VT30.10 (ssRNA)
RNA: GGGAGGACGAUGCGGAACGGAAGAAUUGGAUACGUAGCAUGCGUCAGACGACUCGCCCGA
modifications: 2'-F pyrimidines
B15: VT30.7 (ssRNA)
RNA: GGGAGGACGAUGCGGUAACCAGUGGAAGAAUUGGCUGCUAUCCUCAGACGACUCGCCCGA
modifications: 2'-F pyrimidines
B16: VT30.41 (ssRNA)
RNA: GGGAGGACGAUGCGGCAGGGUGAAUGCCAAUGUACUUUUCGCGUCAGACGACUCGCCCGA
modifications: 2'-F pyrimidines
B17: VP40.53 (ssRNA)
RNA: GGGAGGACGAUGCGGUGAGAGAAACGGAAGAAUUGGAUACGAUACUCAUCGCGCUCAGACGACUCGCCCGA
modifications: 2'-F pyrimidines
B18: VT30.9 (ssRNA)
RNA: GGGAGGACGAUGCGGUCAACCGGUUGAAUAUUUGGUCGCUGACCUCAGACGACUCGCCCGA
modifications: 2'-F pyrimidines
B19: VT30.21 (ssRNA)
RNA: GGGAGGACGAUGCGGAUCAGUGAAUGCUUAUAGACCGUAUUGCGUCAGACGACUCGCCCGA
modifications: 2'-F pyrimidines
B20: VT30.13 (ssRNA)
RNA: GGGAGGACGAUGCGGCAGGAUUUUGGAAGAAUUGGAUAUUGGCCGCAGACGACUCGCCCGA
modifications: 2'-F pyrimidines
B21: VP30.25 (ssRNA)
RNA: GGGAGGACGAUGCGGCGGGAUUUUGGAAGAAUUGGAUAUUGGCCUCAGACGACUCGCCCGA
modifications: 2'-F pyrimidines
B22: VP30.12 (ssRNA)
RNA: GGGAGGACGAUGCGGAAUACGGAAGAAUUGGAUACAUAUGCUCGUCAGACGACUCGCCCGA
modifications: 2'-F pyrimidines
B23: VT30.4 (ssRNA)
RNA: GGGAGGACGAUGCGGCUUAAGUUUUGGAAGAAUUGAAUACUGGGUCAGACGACUCGCCCGA
modifications: 2'-F pyrimidines
B24: VP30.31 (ssRNA)
RNA: GGGAGGACGAUGCGGUAACCGAUUGAACUUCUUGGACGCUACCGUCAGACGACUCGCCCGA
modifications: 2'-F pyrimidines
B25: VT30.27 (ssRNA)
RNA: GGGAGGACGAUGCGGGAUCACGGCUUUGCACGAUCUUCUUCUCCUCAGACGACUCGCCCGA
modifications: 2'-F pyrimidines
B26: VP40.43 (ssRNA)
RNA: GGGAGGACGAUGCGGACAGAAGAAUUGGGCUUCGCAUUAUCCUCUGUCAGCCGCCAGACGACUCGCCCGA
modifications: 2'-F pyrimidines
B27: VT30.52 (ssRNA)
RNA: GGGAGGACGAUGCGGAAGAAUUGAGCAUUCCUUCUCCUUGUGCCUCAGACGACUCGCCCGA
modifications: 2'-F pyrimidines
B28: VP40.41 (ssRNA)
RNA: GGGAGGACGAUGCGGCAAAUUCAAGGUCGAGUUAUGCGUAGAUGUGGCUCCUGUGCAGACGACUCGCCCGA
modifications: 2'-F pyrimidines
B29: VP30.41 (ssRNA)
RNA: GGGAGGACGAUGCGGUAGGAAGUAUUGUAAGCGCCUCGUUUUCGCCAGACGACUCGCCCGA
modifications: 2'-F pyrimidines
B30: VT30.18 (ssRNA)
RNA: GGGAGGACGAUGCGGUUCAGAAUUGGCUGCGAUCCUUUUCCCCCUCAGACGACUCGCCCGA
modifications: 2'-F pyrimidines
B31: VP40.4 (ssRNA)
RNA: GGGAGGACGAUGCGGGAAGAAUUGAUGUUGUAUUGUCCUUCCGAUUUCCUGCCGUCAGACGACUCGCCCGA
modifications: 2'-F pyrimidines
B32: VP40.14 (ssRNA)
RNA: GGGAGGACGAUGCGGGUACCAGAAUGAGCAACCGAAUGAAGAACUGGACGCUGCUCAGACGACUCGCCCGA
modifications: 2'-F pyrimidines
B33: VT30.40 (ssRNA)
RNA: GGGAGGACGAUGCGGAUUUGGAUGCAUGUCAAGGCGUUUUGCCCUCAGACGACUCGCCCGA
modifications: 2'-F pyrimidines
B34: VT30.38 (ssRNA)
RNA: GGGAGGACGAUGCGGAGCGGUAUUCUGUUCGGUCGUUUUCCUCCUCAGACGACUCGCCCGA
modifications: 2'-F pyrimidines
B35: VP40.47 (ssRNA)
RNA: GGGAGGACGAUGCGGCAGUUAAUUAAUUUGAGUUGUGAUGUGUGUCGUUAUGGGCCAGACGACUCGCCCGA
modifications: 2'-F pyrimidines
B36: VP30.43 (ssRNA)
RNA: GGGAGGACGAUGCGGUAACCGAAUUGAAGUUAUUGGACGCUACCUCAGACGACUCGCCCGA
modifications: 2'-F pyrimidines
B37: VT30.2 (ssRNA)
RNA: GGGAGGACGAUGCGGAUCAGUGAAUGCUUAUAGACCGCCUCCGUCAGACGACUCGCCCGA
modifications: 2'-F pyrimidines
B38: VP30.7 (ssRNA)
RNA: GGGAGGACGAUGCGGAAGAAUUGGUCAUCGUCGUCUCCGCCUCCCCAGACGACUCGCCCGA
modifications: 2'-F pyrimidines
B39: VP30.54 (ssRNA)
RNA: GGGAGGACGAUGCGGAAGAAACGGAAGAAUUGGAGACACGCUCGUCAGACGACUCGCCCGA
modifications: 2'-F pyrimidines
B40: VT30.53 (ssRNA)
RNA: GGGAGGACGAUGCGGAGCUAACGGAAGAAUUGGAAACAACCGCGUCAGACGACUCGCCCGA
modifications: 2'-F pyrimidines
B41: VT30.8 (ssRNA)
RNA: GGGAGGACGAUGCGGUUGAUCGAUUUUCCUGGCGUCCUUAUGGGUCAGACGACUCGCCCGA
modifications: 2'-F pyrimidines
B42: VT30.44 (ssRNA)
RNA: GGGAGGACGAUGCGGAAUCAGUGAAUGCUUAUACAUCCGCUCGGUCAGACGACUCGCCCGA
modifications: 2'-F pyrimidines
B43: VP40.9 (ssRNA)
RNA: GGGAGGACGAUGCGGGAGCAGAACCGAUAGAAGAAUUGGACGCUCAGCUCCGGGUCAGACGACUCGCCCGA
modifications: 2'-F pyrimidines
B44: VT30.23 (ssRNA)
RNA: GGGAGGACGAUGCGGGAUCACGAUACUUGACGAUUUUCCUCUCCUCAGACGACUCGCCCGA
modifications: 2'-F pyrimidines
B45: VT30.28 (ssRNA)
RNA: GGGAGGACGAUGCGGAGAAUCAGUGAAUGCUUAUAAACCUCGUGUCAGACGACUCGCCCGA
modifications: 2'-F pyrimidines
B46: VP30.51 (ssRNA)
RNA: GGGAGGACGAUGCGGAGUUUUGGAAGAAUUGGAUGUUCCGAUCGUCAGACGACUCGCCCGA
modifications: 2'-F pyrimidines

molecular target: VEGF165 (Homo sapiens, UniProt P15692-4 P15692-4:27-191); assay: filter; 37 C; conditions: tags: carrier-free, Sf 21 insect cell expressed, R & D Systems; chain copies: 2 (inferred)
Sequence (P15692 other isoform, or with tags, fused parts or gaps): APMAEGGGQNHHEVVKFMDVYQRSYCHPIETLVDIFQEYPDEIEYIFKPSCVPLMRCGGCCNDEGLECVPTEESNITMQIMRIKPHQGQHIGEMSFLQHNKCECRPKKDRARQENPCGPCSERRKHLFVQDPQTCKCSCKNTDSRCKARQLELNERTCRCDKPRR
Experimental: Nucleic Acid Ligands radiolabeled during transcription by incorporation of α-[³²P]-labeled NTPs, or after synthesis using γ-[³²P]-ATP and T4 polynucleotide kinase, were incubated in low concentration (between 20 and 70 pM) with varying concentrations of VEGF or other growth factors at 37° C. for 15 minutes. Incubations were in TBS, PBS, or HEPES-buffered saline (HBS), pH 7.4, with or without the addition of supplemental divalent cations. Samples were passed through prewashed 0.45 μ Type HA filters (Millipore) followed by a 5-10 ml wash with binding buffer. Filters were immersed in scintillant and counted to quantitate the amount of protein-bound RNA retained by each filter. The equilibrium dissociation constant (KD) of Nucleic Acid Ligand binding to a specific protein was calculated from the data points as described in Green et al. (1996) Biochem. 35: 14413-14424.

Row | Binder | Kd
1 | B1 | 0.009 nM
2 | B2 | 32 nM
3 | B3 | 0.006 nM
4 | B4 | 0.01 nM
5 | B5 | 0.01 nM
6 | B6 | 0.004 nM
7 | B7 | 0.01 nM
8 | B8 | 0.01 nM
9 | B9 | 0.003 nM
10 | B10 | 0.009 nM
11 | B11 | 0.01 nM
12 | B12 | 0.043 nM
13 | B13 | 0.004 nM
14 | B14 | 0.002 nM
15 | B15 | 0.01 nM
16 | B16 | 0.04 nM
17 | B17 | 0.008 nM
18 | B18 | 0.03 nM
19 | B19 | 0.006 nM
20 | B20 | 0.01 nM
21 | B21 | 0.02 nM
22 | B22 | 0.007 nM
23 | B23 | 0.02 nM

Row | Binder | Kd
24 | B24 | 0.006 nM
25 | B25 | 0.12 nM
26 | B26 | 0.03 nM
27 | B27 | 9 nM
28 | B28 | 11 nM
29 | B29 | 0.007 nM
30 | B30 | 0.004 nM
31 | B31 | 0.2 nM
32 | B32 | 0.008 nM
33 | B33 | 0.03 nM
34 | B34 | 0.005 nM
35 | B35 | 0.096 nM
36 | B36 | 0.005 nM
37 | B37 | 0.002 nM
38 | B38 | 3 nM
39 | B39 | 0.01 nM
40 | B40 | 0.01 nM
41 | B41 | 0.034 nM
42 | B42 | 0.01 nM
43 | B43 | 0.03 nM
44 | B44 | 0.019 nM
45 | B45 | 0.06 nM
46 | B46 | 0.09 nM
